Experimental data taken from paper PMC7015241, “Myopalladin promotes muscle growth through modulation of the serum response factor pathway” (Journal of Cachexia, Sarcopenia and Muscle, 2019).

Target: Filamentous actin (F-actin) (rabbit, UniProt P68135 1-377)
Assay: co-sedimentation; 1–30 μM polymerized actin incubated with 10 μM MYPN Ig3, Ig4 or Ig3–4 domain for 1 h in 100 μL, 150 000×g for 30 min; SDS-PAGE of supernatants and pellets, densitometry; F-buffer (Tris, KCl, MgCl2, DTT, pH 8.0)
Conditions: both partners purified

Kd: 4.6 µM
B1: Myopalladin (MYPN) Ig3-4 tandem domain (domain or fragment)
chain: PIFDKRLKHFRVTEGSPVTFTCKIVGIPVPKVYWFKDGKQISKRNEHCKMRREGDGTCSLHIESTTSDDDGNYTIMAANPQGRISCSGHLMVQSLPIRSRLTSAGQSHRGRSRVQERDKEPLQERFFRPHFLQAPGDMVAHEGRLCRLDCKVSGLPPPELTWLLNGQPVLPDASHKMLVRETGVHSLLIDPLTQRDAGTYKCIATNKTGQNSFSLELS
